Ends that are not written are not given here. * marks the point of attachment. Biotin = O=C1N[C@H]2[C@H](CS[C@H]2CCCCC(=O)*)N1
Target: T1, wheat germ cell extract in vitro translated HA-GLI1 (human, UniProt P08151 1-1106)
T1 sequence (looked up): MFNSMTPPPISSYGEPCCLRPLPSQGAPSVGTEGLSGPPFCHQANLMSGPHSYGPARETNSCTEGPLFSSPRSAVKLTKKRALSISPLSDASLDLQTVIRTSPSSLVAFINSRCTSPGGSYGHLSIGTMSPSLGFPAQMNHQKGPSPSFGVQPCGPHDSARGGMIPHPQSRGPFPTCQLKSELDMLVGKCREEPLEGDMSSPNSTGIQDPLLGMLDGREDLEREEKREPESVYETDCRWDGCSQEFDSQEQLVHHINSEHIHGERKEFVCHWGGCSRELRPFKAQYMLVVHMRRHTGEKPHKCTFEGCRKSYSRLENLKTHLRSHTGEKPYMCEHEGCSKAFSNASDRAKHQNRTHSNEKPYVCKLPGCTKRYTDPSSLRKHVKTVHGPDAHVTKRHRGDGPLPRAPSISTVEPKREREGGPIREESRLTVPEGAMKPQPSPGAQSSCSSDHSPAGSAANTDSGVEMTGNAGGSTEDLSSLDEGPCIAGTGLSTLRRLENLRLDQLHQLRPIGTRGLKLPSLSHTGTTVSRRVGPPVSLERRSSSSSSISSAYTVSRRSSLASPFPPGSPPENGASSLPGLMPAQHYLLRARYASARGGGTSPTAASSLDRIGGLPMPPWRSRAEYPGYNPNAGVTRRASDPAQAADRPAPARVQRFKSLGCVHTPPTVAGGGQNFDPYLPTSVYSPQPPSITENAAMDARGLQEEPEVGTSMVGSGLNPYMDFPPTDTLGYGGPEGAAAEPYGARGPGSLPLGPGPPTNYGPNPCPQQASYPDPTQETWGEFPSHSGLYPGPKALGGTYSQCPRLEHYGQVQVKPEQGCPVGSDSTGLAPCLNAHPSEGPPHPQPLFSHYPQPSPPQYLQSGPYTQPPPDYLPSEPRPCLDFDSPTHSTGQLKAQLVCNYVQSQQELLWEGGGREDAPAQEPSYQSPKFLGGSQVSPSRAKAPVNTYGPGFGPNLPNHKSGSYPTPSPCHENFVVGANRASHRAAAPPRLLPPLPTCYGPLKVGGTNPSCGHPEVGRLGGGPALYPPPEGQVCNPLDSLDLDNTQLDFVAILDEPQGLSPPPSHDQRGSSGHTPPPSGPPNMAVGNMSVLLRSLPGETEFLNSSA
Assay: co-IP

In the case of Biotin-LEDPSVLTKDKLKSELVANNVTLPAGEQRKDVYVQLYLQHLTAR (peptide, UniProt P42166 5-48, looked up) [biotin-LEM-like domain peptide (residues 5–48)], the Kd is reported as 8 µM.

Reference: publication PMC6379078 (Cell, 2018)
